Data reported in PMC6530996, “HspB1 phosphorylation regulates its intramolecular dynamics and mechanosensitive molecular chaperone interaction with filamin C” (Science Advances, 2019).
Each block holds one molecule with its values, some of them ahead of it. No end group written: not given here.

Tests used:
FLNCd18–21 [1] = biological target: T1, FLNCd18–21 (Homo sapiens, UniProt Q14315); assay: native MS peptide titration / complex detection with FLNCd18–21; assay type: binding; conditions: for complex formation with FLNCd18–21: native MS, 200 mM ammonium acetate pH 6.9, peptides at 30 μM with 5 μM FLNCd18–21 (fig. S5D)
T1 construct: WT, residues 1943 to 2408 from UniProt ID Q14315; 6xHis (C); EEF (C); made in house; host or cells: E. coli BL21(DE3) pLysS
T1 sequence (Q14315 1943-2408): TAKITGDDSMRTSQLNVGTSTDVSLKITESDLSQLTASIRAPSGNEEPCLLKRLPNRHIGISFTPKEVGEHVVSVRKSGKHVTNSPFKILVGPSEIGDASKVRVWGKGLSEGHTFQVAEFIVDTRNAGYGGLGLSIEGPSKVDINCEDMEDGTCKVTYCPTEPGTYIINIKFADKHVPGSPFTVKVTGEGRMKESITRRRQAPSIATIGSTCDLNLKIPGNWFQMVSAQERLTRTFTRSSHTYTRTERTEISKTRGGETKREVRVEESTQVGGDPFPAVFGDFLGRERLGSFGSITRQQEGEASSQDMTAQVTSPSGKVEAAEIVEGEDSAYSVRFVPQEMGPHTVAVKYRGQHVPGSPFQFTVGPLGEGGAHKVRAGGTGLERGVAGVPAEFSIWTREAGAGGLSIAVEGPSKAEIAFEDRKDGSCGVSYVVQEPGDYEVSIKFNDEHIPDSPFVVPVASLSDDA
Text: To isolate a stable HspB1-FLNCd18–21 complex and localize the binding within HspB1, we performed native ion mobility MS (IM-MS) experiments. […] Next, we mixed FLNCd18–21 with either HspB1_84–171 or peptides mimicking the PPR, because this region is phosphorylated in the MLP KO mice (Fig. 1C) and generally upon biomechanical stress ([26]) and becomes exposed thereafter. This strategy of using segments of HspB1 meant that we could avoid the problems of insolubilization of the full-length protein upon interaction with FLNC d18–21, as well as generally mitigate the confounding effects associated with the chaperone’s intrinsic polydispersity.
By quantifying the relative abundances of FLNCd18–21 and the peptide-bound species, we could determine binding affinities (Fig. 4B, lower panel, and fig. S4G). We obtained similar dissociation constants (KDs) of 130 ± 17 μM (HspB1_80–88) and 110 ± 10 μM (^PHspB1_80–88), indicating weak binding that is not affected substantially by phosphorylation. These findings contrast with the notable effect of HspB1 phosphomimicry on the interaction of full-length chaperone with the FLNC fragment (Fig. 1E). However, they can be rationalized by phosphorylation increasing the effective concentration of the binding region by modulating its conformational state (Fig. 2B and fig. S3) and leading to dimer (Fig. 2D) and oligomer disassembly ([22], [23]). To localize binding of HspB1_80–88 to domains with Ig folds or to the d20 insertion (which is possibly disordered), we prepared a modified FLNC construct lacking the 82 insertion residues (FLNCd18–21,ΔI).
The region of human FLNC comprising domains 18 to 21 (WT, residues 1943 to 2408 from UniProt ID Q14315; ∆I, residues 1943 to 2408 excluding 2163 to 2243) was encoded in a modified pET23a/EEF with C-terminal 6× His and EEF tags. The plasmid was transformed into E. coli BL21(DE3) pLysS cells (Agilent). To generate the Mβ construct, mutations E2136R and I2138E were introduced by site-directed mutagenesis. Cells were grown in LB at 37°C until an OD600 of 0.6 to 0.8 was reached. […] Purity was assessed by SDS-PAGE, and protein was stored in MS buffer at −80°C and used for experiments within 2 weeks of purification, after noticing in initial preparations some propensity for destabilization and aggregation following long-term storage. […]
Because HspB1 can form disulfide-linked dimers, experiments involving the ACD were performed in the presence of 10-fold molar excess DTT. […] Native MS and IM-MS data were recorded on a Synapt G1 mass spectrometer (Waters) modified for the transmission of intact noncovalent protein complexes. HspB1_77–171 variants were analyzed at a concentration of 10 μM in 200 mM ammonium acetate (pH 6.9). […]

EEF-tagged FLNCd18–21 = assay: coimmunoprecipitation of recombinant proteins; assay type: binding, human; conditions: T7 antibody pull-down, 1 μg HspB1, 10 μg FLNCd18–21, 1 hour, room temperature
Description: (§1) Next, to validate the interaction in vitro, we expressed EEF-tagged human FLNC domains 18 to 21, encompassing the apparent HspB1 binding site ([16]), and full-length human HspB1 attached to a T7 tag. […] To investigate the effect of HspB1 phosphorylation on the interaction, we expressed WT human HspB1 and ^3PHspB1, a triple mutant containing phosphomimetic Ser to Asp substitutions at residues 15, 78, and 82. Upon incubation with FLNCd18–21 in vitro, we noticed that mixtures accumulated insoluble protein aggregates, while isolated proteins remained soluble. […] The results support an interaction between HspB1 and FLNCd18–21 to form large complexes that can be modulated by phosphorylation of HspB1.
T7-tagged purified recombinant HspB1 protein (1 μg) was added to 10 μg of EEF-tagged recombinant FLNCd18–21 in immunoprecipitation (IP) buffer [0.05% Triton X-100, 1% bovine serum albumin, protease inhibitors (Roche mini complete EDTA-free tablets) in phosphate-buffered saline (PBS)] and incubated for 1 hour, shaking at room temperature. This was followed by another 30-min incubation, shaking at room temperature after the addition of 0.5 μg of anti-T7 (69522, Novagen) or mouse IgG2b isotype (ab18457, Abcam) antibody. Next, 25 μl of protein G Sepharose resin (PC-G5, Generon) was added to each tube and incubated for 1 hour, shaking at room temperature. […]

FLNCd18–21 [2] = biological target: T1, FLNCd18–21; assay: SDS-PAGE aggregation assay with FLNCd18–21; assay type: biochemical; conditions: 80 μM HspB1 + 40 μM FLNCd18–21 (2:1), 200 mM ammonium acetate pH 6.9, 500 μM DTT, 25°C, 90 min, densitometry
Description: as §1
HspB1 (WT or 3P) was mixed with FLNCd18–21 at a 2:1 ratio (80 and 40 μM, respectively) in 200 mM ammonium acetate (pH 6.9) with 500 μM DTT and incubated at 25°C for 90 min. Aliquots were removed periodically and pelleted at 13,000g at 10°C for 10 min. Soluble fractions were diluted threefold with 200 mM ammonium acetate for analysis by SDS-PAGE, and pellets were resuspended in the same volume of 200 mM ammonium acetate and solubilized upon addition of the SDS-PAGE loading buffer. Gel bands were quantified by densitometry, using the raw intensities of FLNC and HspB1 bands to extract relative soluble and insoluble proportions at each time point.

[3] = biological target: T2, human FLNC domains 18 to 21 (FLNC_(d18–21)), EEF-tagged (human, UniProt Q14315 1943-2408); assay: cell-based or functional assay
T2 sequence (looked up): T1 sequence (Q14315 1943-2408)

[4] = biological target: T2, human FLNC domains 18 to 21 …; assay: native MS; titration: FLNC_(d18–21) constant at 5 μM, peptide 5 to 160 μM, 200 mM ammonium acetate pH 6.9, acetonitrile vapor; fit with three equivalent binding sites (UniDec); conditions: both partners purified
[5] = biological target: T2, human FLNC domains 18 to 21 …; assay: native MS; native IM-MS of mixtures of FLNC_(d18–21) or FLNC_(d18–21,ΔI) with HspB1_(84–171), HspB1 peptides or an excess of control peptides; 200 mM ammonium acetate pH 6.9; conditions: both partners purified

Molecule: HspB1_177–186: Peptide from human HspB1, C-terminal residues 177 to 186 (NEITIPVTFE; UniProt P04792 177-186, looked up, fragment) [reference compound]
complex formation with FLNCd18–21 (FLNCd18–21 [1]): No appreciable complex is detected

Molecule: QLSSGVSEI [HspB1_80–88]
Kd (FLNCd18–21 [1]; native MS titration, 5 μM FLNCd18–21, 5 to 160 μM peptide, 200 mM ammonium acetate pH 6.9, minimum three technical repeats, model of three equivalent binding sites, 500 bootstraps, apparent KD, read-out: dissociation constant KD (apparent)): > 100 µM

Molecule: T7-tagged HspB1: Full-length WT HspB1 with an N-terminal T7 tag
coimmunoprecipitation of FLNCd18–21 (EEF-tagged FLNCd18–21): pulled down both HspB1 and FLNCd18–21
coimmunoprecipitation of FLNCd18–21 (EEF-tagged FLNCd18–21; listed as full-length human HspB1 attached to a T7 tag): confirming a direct interaction

Molecule: WT human HspB1: Full-length WT HspB1
migration to pelleted fraction of mixture with FLNCd18–21 (FLNCd18–21 [2]): both proteins migrated to the pelleted fraction over time

Molecule: ^3PHspB1: Full-length human HspB1 with Ser to Asp phosphomimic substitutions at residues 15, 78 and 82
migration to pelleted fraction of mixture with FLNCd18–21 (FLNCd18–21 [2]): substantially increased by phosphomimicry

Further lines, results first:

complex formation with FLNCd18–21 (FLNCd18–21 [1]): Complexes were not observed
complex formation with FLNCd18–21 (FLNCd18–21 [1]; listed as HspB184-171): No complex is observed
Molecule: HspB1_84–171: Human HspB1 α-crystallin domain (ACD)

activation required for the transition of unfolding intermediate B to final state C of FLNC_(d18–21) with one peptide bound (coulombically steered unfolding, IM-MS) [3]: ~75 V
Kd [4]: 110 ± 10 µM
stoichiometry N [4]: ≤ 3
stoichiometry N [5]: ≤ 2
B1: ^PHspB1_(80–88) phosphorylated peptide (peptide, UniProt P04792 80-88, looked up)
peptide: QLSSGVSEI
modifications: also: phosphorylated, site not given here
notes: N-terminal acetylation open as for m13; also called phosphopeptide; source: synthetic peptide, bought: Biomatik
